Source: PMC12854727

molecular target: human TMPRSS2 ectodomain harboring S441, the DS mutation, SUMO and the N249 glycan (self-activating; wildtype of Figure 4C) (human) (UniProt O15393); assay: enzyme inhibition kinetics (peptidase assay, competitive inhibition fit); 5 nM TMPRSS2 with serial dilutions of Boc-QAR-AMC substrate in the presence of 215, 72 or 24 nM HKU1 RBD, 22 °C; TMPRSS2 incubated 2 minutes with the RBD before substrate; details: not given

Work on “HKU1 isolate N1 (genotype A) RBD, wildtype, without avi tag (from UniProt Q5MQD0 320-614) (domain or fragment)” yielded a Ki of 38 nM.

molecular target: cleaved human TMPRSS2 ectodomain harboring the S441A residue substitution and a C379-T447C disulfide bond (UniProt O15393); assay: BLI; details: 100 nM TMPRSS2 S441A for 200 seconds followed by dissociation for 400 seconds; RBD on SA biosensors; value read at 200 s; parent: est. 0.53; read off a plot

First: HKU1 isolate N1 (genotype A) RBD, wildtype, biotinylated (avi tag) (from UniProt Q5MQD0) H488A
Second: HKU1 isolate N1 (genotype A) RBD, wildtype, biotinylated (avi tag) (from UniProt Q5MQD0) E505A
The response of the first is lower: 0.18 nm for the first, 0.36 nm for the second.

First: HKU1 isolate N1 (genotype A) RBD, wildtype, biotinylated (avi tag) (from UniProt Q5MQD0) Y528A
Second: HKU1 isolate N1 (genotype A) RBD, wildtype, biotinylated (avi tag) (from UniProt Q5MQD0) R517A
The response of the first is higher: 0.11 nm for the first, 0.022 nm for the second.

First: HKU1 isolate N1 (genotype A) RBD, wildtype, biotinylated (avi tag) (from UniProt Q5MQD0) V509A
Second: HKU1 isolate N1 (genotype A) RBD, wildtype, biotinylated (avi tag) (from UniProt Q5MQD0) W515A
The response of the first is higher: 0.1 nm for the first, 0 nm for the second.

“HKU1 isolate N1 (genotype A) RBD, wildtype, biotinylated (avi tag) (from UniProt Q5MQD0) L510A” showed a response of 0 nm.

molecular target: HKU1 isolate N1 (genotype A) RBD, wildtype, biotinylated (avi tag) (UniProt Q5MQD0); assay: BLI; details: 100 nM TMPRSS2; area under the binding response curve normalised to human WT TMPRSS2, not to the mouse parent; parent: est. 19; read off a plot

In the case of “S441A House Mouse TMPRSS2 ectodomain (DS mutation, SUMO, N249 glycan) S412N”, the response is reported as 38 % WT.

same assay, conditions: 100 nM TMPRSS2; area under the binding response curve normalised to human WT TMPRSS2, not to the mouse parent; read off a plot

Work on House Mouse TMPRSS2 ectodomain S441A yielded a response of 19 % WT.

same assay, conditions: 100 nM TMPRSS2; area under the binding response curve; Not activated: uncleaved S441A TMPRSS2; read off a plot

“human TMPRSS2 ectodomain harboring S441, the DS mutation, SUMO and the N249 glycan (self-activating; wildtype of Figure 4C) (from UniProt O15393) S441A” showed a percent of parent of 1.4 % WT.

same assay, conditions: 100 nM TMPRSS2; area under the binding response curve; cleaved (activated by enterokinase); read off a plot

In the case of “human TMPRSS2 ectodomain harboring S441, the DS mutation, SUMO and the N249 glycan (self-activating; wildtype of Figure 4C) (from UniProt O15393) S441A”, the percent of parent is reported as 100 % WT.

same assay, conditions: 100 nM TMPRSS2; area under the binding response curve; read off a plot

Compared with “human TMPRSS2 ectodomain harboring S441, the DS mutation, SUMO and the N249 glycan (self-activating; wildtype of Figure 4C) (from UniProt O15393) S463F”, “human TMPRSS2 ectodomain harboring S441, the DS mutation, SUMO and the N249 glycan (self-activating; wildtype of Figure 4C) (from UniProt O15393) T341S” is higher in percent of parent: 1.6 % WT for the first, 85 % WT for the second.

First: human TMPRSS2 ectodomain harboring S441, the DS mutation, SUMO and the N249 glycan (self-activating; wildtype of Figure 4C) (from UniProt O15393) R409K
Second: human TMPRSS2 ectodomain harboring S441, the DS mutation, SUMO and the N249 glycan (self-activating; wildtype of Figure 4C) (from UniProt O15393) A468P
The percent of parent of the first is lower: 81 % WT for the first, 95 % WT for the second.

First: human TMPRSS2 ectodomain harboring S441, the DS mutation, SUMO and the N249 glycan (self-activating; wildtype of Figure 4C) (from UniProt O15393) S412N; Y469L
Second: human TMPRSS2 ectodomain harboring S441, the DS mutation, SUMO and the N249 glycan (self-activating; wildtype of Figure 4C) (from UniProt O15393) R413V
The percent of parent of the first is lower: 81 % WT for the first, 85 % WT for the second.

Compared with “human TMPRSS2 ectodomain harboring S441, the DS mutation, SUMO and the N249 glycan (self-activating; wildtype of Figure 4C) (from UniProt O15393) Y414S”, “human TMPRSS2 ectodomain harboring S441, the DS mutation, SUMO and the N249 glycan (self-activating; wildtype of Figure 4C) (from UniProt O15393) S463T” is lower in percent of parent: 28 % WT for the first, 2 % WT for the second.

Compared with “human TMPRSS2 ectodomain harboring S441, the DS mutation, SUMO and the N249 glycan (self-activating; wildtype of Figure 4C) (from UniProt O15393) R470K”, “human TMPRSS2 ectodomain harboring S441, the DS mutation, SUMO and the N249 glycan (self-activating; wildtype of Figure 4C) (from UniProt O15393) Y469N” is higher in percent of parent: 1.6 % WT for the first, 10 % WT for the second.

Going from “human TMPRSS2 ectodomain harboring S441, the DS mutation, SUMO and the N249 glycan (self-activating; wildtype of Figure 4C) (from UniProt O15393) V415I” to “human TMPRSS2 ectodomain harboring S441, the DS mutation, SUMO and the N249 glycan (self-activating; wildtype of Figure 4C) (from UniProt O15393) S463Y”, the percent of parent falls from 71 % WT to 1.5 % WT.

First: human TMPRSS2 ectodomain harboring S441, the DS mutation, SUMO and the N249 glycan (self-activating; wildtype of Figure 4C) (from UniProt O15393) D417N
Second: human TMPRSS2 ectodomain harboring S441, the DS mutation, SUMO and the N249 glycan (self-activating; wildtype of Figure 4C) (from UniProt O15393) L419A
The percent of parent of the first is higher: 15 % WT for the first, 4.1 % WT for the second.

Going from “human TMPRSS2 ectodomain harboring S441, the DS mutation, SUMO and the N249 glycan (self-activating; wildtype of Figure 4C) (from UniProt O15393) Y469L” to “human TMPRSS2 ectodomain harboring S441, the DS mutation, SUMO and the N249 glycan (self-activating; wildtype of Figure 4C) (from UniProt O15393) Y414L”, the percent of parent falls from 130 % WT to 2.5 % WT.

Compared with “human TMPRSS2 ectodomain harboring S441, the DS mutation, SUMO and the N249 glycan (self-activating; wildtype of Figure 4C) (from UniProt O15393) R413K”, “human TMPRSS2 ectodomain harboring S441, the DS mutation, SUMO and the N249 glycan (self-activating; wildtype of Figure 4C) (from UniProt O15393) K340D” is lower in percent of parent: 77 % WT for the first, 57 % WT for the second.

First: human TMPRSS2 ectodomain harboring S441, the DS mutation, SUMO and the N249 glycan (self-activating; wildtype of Figure 4C) (from UniProt O15393) S412N
Second: human TMPRSS2 ectodomain harboring S441, the DS mutation, SUMO and the N249 glycan (self-activating; wildtype of Figure 4C) (from UniProt O15393) Y414R
The percent of parent of the first is higher: 110 % WT for the first, 3.9 % WT for the second.

First: human TMPRSS2 ectodomain harboring S441, the DS mutation, SUMO and the N249 glycan (self-activating; wildtype of Figure 4C) (from UniProt O15393) R409T
Second: human TMPRSS2 ectodomain harboring S441, the DS mutation, SUMO and the N249 glycan (self-activating; wildtype of Figure 4C) (from UniProt O15393) L419M
The percent of parent of the first is higher: 79 % WT for the first, 51 % WT for the second.

same assay, conditions: 100 nM TMPRSS2 mutants for 200 seconds followed by dissociation for 400 seconds; RBD on SA biosensors; value read at 200 s; parent: est. 0.50; read off a plot

Going from “human TMPRSS2 ectodomain with S441 and the C379-T447C disulfide bond (wildtype of Figure 2F) (from UniProt O15393) R470A” to “human TMPRSS2 ectodomain with S441 and the C379-T447C disulfide bond (wildtype of Figure 2F) (from UniProt O15393) Y414A”, the response falls from 0.14 nm to 0.1 nm.

First: human TMPRSS2 ectodomain with S441 and the C379-T447C disulfide bond (wildtype of Figure 2F) (from UniProt O15393) Y469A
Second: human TMPRSS2 ectodomain with S441 and the C379-T447C disulfide bond (wildtype of Figure 2F) (from UniProt O15393) W461A
The response of the first is higher: 0.36 nm for the first, 0 nm for the second.
